# Data reported in patent US20220256794A1, “TERPENE SYNTHASES AND TRANSPORTERS” (The State of Israel, Ministry of Agriculture & Rural …, priority 2019, published 2022).
# How the values were obtained:
# yeast cells [1] = test: Uptake of CBD into yeast cells; type: cell-based, Saccharomyces cerevisiae (strain Y1HGold); conditions: 0.5 mM CBD, three hour incubation, FIG. 3A and FIG. 4
# Description: (§1) The genes were expressed in yeast and tobacco. For yeast, the ABC and PTR Transporter genes were synthesized by the TWIST Co, cloned and expressed (individually) in the yeast expression vector pESC-URA (Agilent Technologies) for expression under the yeast native gal-10 promoter. Competent Saccharomyces cerevisiae (strain Y1HGold, CloneTech) cells were prepared, transformed by each of the resulting vector and selected on yeast synthetic media lacking Uracil as previously described [GietzR. D., Methods Mol. Biol. (2014) 1205:1-12].
# An additional strategy for determining transporter function is to measure the amount of exogenous CBD taken up and incorporated into the cells.
# Transformed yeast cells were grown on URA-glucose broth at 30° C. at 200 RPM, and after 24 hours 100 μl was used to inoculate 5 ml of URA-galactose broth in the same conditions till OD600 of […]. The yeast was incubated with 0.5 mM CBD for 2-8 hours in 30° C. at 100 RPM, then centrifuged at 15000 g for 1 minute, and washed twice with 1 ml distilled water. The pellet was weighed and underwent HPLC analysis to determine the pellet's CBD content. The pellet was extracted in 1 ml methanol, and following centrifugation and filter was analyzed by HPLC using a diode-array detector and CBD was quantified against a commercial standard.
# yeast cells [2] = test: Yeast growth (turbidity A600) in the presence of CBD; type: cell-based, Saccharomyces cerevisiae (strain Y1HGold); conditions: 0.5 mM CBD, 7-12 hours, FIG. 2
# Description: as §1
# An alternative method is to measure the yeast growth as a function of turbidity. Transformed yeast cells were grown on URA-glucose broth at 30° C. at 200 RPM, and after 24 hours 100 μl was used to inoculate 5 ml of URA-galactose broth in the same conditions till O.D.600 of 1.5. The yeast was further diluted to OD600=0.05 with 10 ml URA-galactose, and divided into two 5 ml aliquots into separate 50 ml falcon tubes. The first falcon (control) was added 78 μl acetonitrile (the solvent that the CBD was dissolved in), and the second one was added 78 μl CBD solution in acetonitrile (final CBD concentration=0.5 mM). […]
# [3] = Terpene synthase activity assay with GPP; type: biochemical; conditions: TPS expressed in E. coli; 10 μM GPP, overnight at 30° C., SPME GC-MS
# Description: Putative terpene synthase genes were synthesized by the TWIST Co., and cloned into Novagen pET-28a(+) with a 6×His tag at its' N-terminus. The recombinant plasmid was then sequenced for authentication and transformed into BL21(DE3) pLysS and pLysE strains of E. coli (Agilent Technologies) for heterologous expression. An overnight culture was used to inoculate a 20-200 mL culture, induced with 0.1 mM IPTG at an OD 600 nm >0,8 for initiation of recombinant protein translation then incubated at 18° C. and 250 RPM overnight. The cells were collected by centrifugation and the recombinant enzymes were extracted either as a crude extract or purified on a Ni-NTA agarose resin as previously described [Gonda I. et al., The Plant Journal (2013) 61, 458-472].
# To determine the terpene synthase catalytic activity, reaction mixtures containing 100 μl of protein extract or purified protein were incubated overnight at 30° C. with either 10 μM geranyl diphosphate (GPP) or farnesyl diphosphate (FPP), in a final volume of 200 μl using a buffer containing 50 mM bis-tris, pH 6.9, 1 mM DTT, 10% (v/v) glycerol, 0.1 mM of MnCl2 and 10 mM of MgCl2. The volatiles produced were extracted by solid-phase microextraction (SPME) according to the methodology previously described [Iijima Y. et al., Plant Physiol (2004) 136: 3724-3736]. As controls, reactions were carried out without the cofactors MnCl2 and MgCl2, or protein extracts were heat inactivated by incubation at 100° C. for 5 minutes, or a short peptide product of an empty pET100 vector was utilized.
# For solid-phase microextraction (SPME) analysis, a 57298-U SPME fiber assembly Divinylbenzene/Carboxen/Polydimethylsiloxane (DVB/CAR/PDMS, Supelco) needle size 23 ga, StableFlex, was used with an autosampler and analyzed by GC-MS as previously described [Davidovich-Rikanati R. et al., Nature Biotech (2007) 25:899-901; Davidovich-Rikanati R. et al., Plant J (2008) 56:228-238]. The SPME fiber were adsorbed for 30 min. by automatic HS-SPME at 50° C. followed by injection of the fiber into a GC-MS injection port for 5 min. (splitless), for desorption of the volatiles. Chiral separation was conducted on a Restek Rt™-bDEXsm column (30 m length 0.25 mm i.d., 0.25 μm film thickness, 2,3-di-O-methyl-6-O-tert-butyl dimethylsilyl beta cyclodextrin added into 14% cyanopropylphenyl/86% dimethyl polysiloxane). Helium (0.8 ml min-1) was used as a carrier gas with splitless injection. The injector temperature was 250° C., and the detector temperature was 230° C. The following conditions were used: initial temperature 40° C. for 5 min., followed by a ramp of 2° C./min. to 110° C., and 10° C./min up to 230° C. (5 min.). A quadrupole mass detector with electron ionization at 70 eV was used to acquire the MS data in the range of 41 to 350 m/z. The identification of the volatiles was assigned by comparison spectral data with the W10N11 and HPCH2205 GC-MS libraries and with authentic standard when available.
Molecule,net uptake of CBD into yeast cells compared to control (empty vector) yeast (yeast cells [1]),"inhibition of yeast growth in response to CBD, transporter-expressing yeast vs control yeast (yeast cells [2])",Monoterpenes produced with GPP [3]
"T-AG2575-1: Cannabis ABC-G transporter gene product, amino acid SEQ ID NO: 55 (protein, ABC+PTR Transporter amino acid sequence (of the 12 identified gene products)) MEVGDLYKAGNSLRSSKGSSVWRGNNNNNNNKDEFFSKSRREDDIDDEEALTWAALEKLPTYDRLRKGILTTSKGKPTEVDVINLGSKERKDLLRRLVNVADEDNESFLLKLKQRIQTVGIELPTIEVRYENIKVEADVHVGSRALPSFINFCVNILEMLVSFLPILKSKKKHVTILDDVSGAIKPGRLTLLLGPPNSGKTTLLLTLAGKLASELKFSGRVTYNGHEMNEFIPQRTAAYISQHDVHIGEMTVRETLSFSARCQGVGTRYDMLAELSRREKEANITPDPDIDVFMKAASAEGQESSVITDYIIKILGLEGCADTMVGNEMLRGISGGQKKRVTTGEMLVGPAGALFMDEISTGLDSSTTFQIVNSLKQFAHIFEETIVISLLQPAPETYDLFDDIILLSDGQIVYQGPRENVLEFFELTGFKCPERKAIADFLQEVTSRKDQAQYWARSDQPYKFVTVNEFVEAFQSFHIGKKVVEHLSIPFDKTKSHPAALTTKPYGLNKMELLKACMSREFLLMKRNSFVHIFKIVQLGILGLISATIFLRTKMHHKTLQDGSIYLGALFFSTLMIMFNGLSEVPMTIVKLPVFYKQRDLQFFPAWAYALPSMIYKAPVAFIEVLVWMTITYYSIGFDPYFGRVVKLYVLFVIINQMASGLFRAIASIGRSMIIANTFGAFSLLLLFVLGGFVLSRDFIKGWWIWGYWISPLMYGQTGVVVNEFNGNKWKHVPPNSTETLGVQVLKARGFFTDSYWYWLGFAALSAYVVIFNFVYTLALTYLNPLEQRQAVSNENSESGDIQNDEEGEVIEMTQRPKNMGENQSKKKGMILPFEPHSICFDDVCYSVDMPQEMKGQGVVEDKLVLLKSVSGSFRPGVLTALMGVSGAGKTTLMDVLAGRKTGGYIEGDIRISGYPKKQETFARISGYCEQNDIHSPYVTVYESLLYSAWLRLPSEVDMDTRKMFIEEVMELVELVPLRQALVGLPGVNGLSTEQRKRLTIAVELVANPSIIFMDEPTSGLDARAAAIVMRTVRNTVDTGRTVVCTIHQPSIDIFEAFDELFLLKIGGEEIYVGPLGRHSCHLINYFEAIEGVSKIKEGYNPGTWMLEVSSSAQEMALGVDFANIYKNSDLYKRNKELIKELSTPAPGSKDLYFPTQFSRSLYTQCIACLWKQRQSYWRNPLYTAVRFMFTTFIALMFGTMFWDLGSKRSNKQDLTNALGSMYSAVLFIGVQNSSSVQPVVGVERTVFYREKAAGMFSAFPYTFGQVVVEIPYIICQAVVYCLIVYAMMGFEWTAVKFFWYLFFTFFSMLYFTFYGMMAVGITPNNHVASIISAAFYSIWNLFSGFIVPRTRIPIWWRWYYWGCPTAWTLYGLLVSQYGDVEDVMDAETGETVKQYLKSYFGYKHDFIGVVAMVNVFYGLLFGGIFALSIKVLNFQNR",reduced net uptake of CBD,reduced inhibition of growth,–
"AG3403-2: Cannabis terpene synthase gene product, amino acid SEQ ID NO: 40 (protein, Terpene Synthase Gene Amino acid sequence of the 45 identified gene products) MHCITLKHQISPLLPNICSTTNFGVFFRPKLYTNYNIINNATKSRLSSACYPIQCAVVNSSNAIIDRRSANFEPSIWSFDYIQSLTSQYKGEPYTSRVKKLERDVKKILVEMENSLAQLELIDTLQRLGISYRFENEINSILNKKYVNINNPNYNLYAIALQFRLLRQHGYAVPQEIFNQLKDEIENIKKNINGNDIMGILALYEASFYEKKGESILKEARIFTTKCLKNYTIMISEQKKLLIDNDYDYDIEVVNHALELPLHRRTTRTEAKWFIDAYAKKQDMNPMLLELAKLNFNTVQSTHHEDLKHIFRWWRHTKLGEKLNFARDRLMECFLWNIGIRFESKFSYFRTKTAKLFELVTFIDDIYDVYGTLDELELFTKAVERWDVKMINELPEYMKMPYLVLHNTINDMVFEVLRDQEISINIQYLKKTWVDMCKSFLQEAKWYYSGYTPTLEEYIENGWISVGAPVILVHAYFFHANNNRTITNTKEIFECLEHGYYPAIIRHSAIILRFTNDLTTSSEELKRGDAPTSIQCYMQEKNVSEEEAREHIKFLINEAWKEMNNDVGLYPISLTEDATNFAKMGFFIYQHGDGHSSQDNQSKQKISSLIIEPIPLYT",–,–,beta-myrcene and geraniol
"799-4: Cannabis terpene synthase gene product, amino acid SEQ ID NO: 33 (protein, Terpene Synthase Gene Amino acid sequence of the 45 identified gene products) MSNIQVLASSQLSDKIIARPTTNFHPSIWGDRFLHYNISEQDLVCKEERIEELIQVVKKEILSSNHDQLKLIDNLQRLGLSHHFESEIEKLLEHLSTTHHQNHHDLHDASLCFRLLRQHGFNVSSSIFEKFKDEKGNFKGSLITDVPGLLSLYEASHLSYVGESILDEALAFTTTHLKAIVANSKDHPLSHQISIALHRPLRKTIERLHARFYISIYEKDASHNKVLLELAKLDFNLLQCFHKKELSEIMRWWKEHEFAKKFPFARDRMVEQYFWILGVYYEPKYSRARKLLTKVIALASITDDIYDAYGTIDELELLTKAMQRWDITCMDKLEPEYLKTYYKAMLDSYEEFEKELKKEELYKLEYAKEEMKRIIGAYFEEARWLSEGYFPSLDEHLKVSYVSCGYVLLIATSYVGMYDIVTHETLNWLSKDPKIVSASTLLARFMDDIGSRKFEQKRNHIPSTVDCYMKQYEVSEEEAIKELNKRVDTHWKEINEDFIRPTVVPFPILVRVLNFTKTVDLLYKEGDDQYTNVGKVLKESIAALLIDSIPL",–,–,myrcene
